Results as given in the supplement of paper PMC7125110.
± gives the standard error. For part of these data: Variants at the floor of the assay were thinned out.

B1: glmS ribozyme (parent)
chain: AUAAAAGCGCCAGAACUACAGAAAUGUAGUUGACGAGGAGGAGGUUUAUCGAAUUUUCGGCGGAUGCCUCCAAA

Experiments:
Settings in all cases: with glucosamine-6-phosphate
glucosamine-6-phosphate [1] = variants of: B1; test: kcat; higher = faster cleavage; RNA array
Summary of the method: (§1)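 kobs was derived by fitting per-tile medians to one- or two-exponential decays after normalising signals to baseline and to non-cleaving reference variants. Those signals came from barcoded ribozyme variants transcribed in situ by E. coli RNA polymerase on sequenced MiSeq chips, followed through a hybridised Cy3 probe at 37 °C and imaged over ~14 h. Glucosamine-6-phosphate (40 μM to 10 mM) in HEPES/KCl/Mg(OAc)2 buffer was flowed in. Weighted Michaelis–Menten fits across concentrations then gave kcat and KM.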

glucosamine-6-phosphate [2] = variants of: B1; test: KM; higher = weaker cofactor use; RNA array
Summary of the method: as §1

glucosamine-6-phosphate [3] = variants of: B1; test: self-cleavage kobs at 40 uM GlcN6P; higher = faster cleavage; RNA array
Summary of the method: as §1

glucosamine-6-phosphate [4] = variants of: B1; test: self-cleavage kobs at 160 uM GlcN6P; higher = faster cleavage; RNA array
Summary of the method: as §1

glucosamine-6-phosphate [5] = variants of: B1; test: self-cleavage kobs at 640 uM GlcN6P; higher = faster cleavage; RNA array
Summary of the method: as §1

glucosamine-6-phosphate [6] = variants of: B1; test: self-cleavage kobs at 2500 uM GlcN6P; higher = faster cleavage; RNA array
Summary of the method: as §1

glucosamine-6-phosphate [7] = variants of: B1; test: self-cleavage kobs at 10000 uM GlcN6P; higher = faster cleavage; RNA array
Summary of the method: as §1

Variant | kcat (glucosamine-6-phosphate [1]) [s⁻¹] | KM (glucosamine-6-phosphate [2]) [µM] | self-cleavage kobs at 40 uM GlcN6P (glucosamine-6-phosphate [3]) [s⁻¹] | self-cleavage kobs at 160 uM GlcN6P (glucosamine-6-phosphate [4]) [s⁻¹] | self-cleavage kobs at 640 uM GlcN6P (glucosamine-6-phosphate [5]) [s⁻¹] | self-cleavage kobs at 2500 uM GlcN6P (glucosamine-6-phosphate [6]) [s⁻¹] | self-cleavage kobs at 10000 uM GlcN6P (glucosamine-6-phosphate [7]) [s⁻¹]
A39C G66A | 0.004 ± 0.00092 | 2860 ± 890 | 7.75e-05 ± 1.2e-05 | 0.000194 ± 3.3e-05 | 0.000666 ± 8.8e-05 | 0.00181 ± 0.00027 | 0.0033 ± 0.00049
A39G U46A | 0.00547 ± 0.00066 | 2120 ± 360 | 0.000116 ± 3.8e-05 | 0.000377 ± 0.0001 | 0.00116 ± 0.00029 | 0.00325 ± 0.00083 | 0.00435 ± 0.0014
G40C C70A | 0.000174 ± 1.6e-05 | 516 ± 140 | – | – | 0.000105 ± 1.9e-05 | 0.00016 ± 3.8e-05 | 0.000154 ± 2.9e-05
A39G U56A U57G G60U C67U C70U | 1.31e-05 ± 5.3e-06 | – | – | – | – | – | –
G40U U57A | 6e-05 ± 6.8e-06 | – | < 1e-05 | – | – | – | 2.24e-05 ± 1e-05
G40C C70U C71G | 0.00208 ± 0.00091 | – | 0.000192 ± 2.7e-05 | 0.000296 ± 8.3e-05 | 0.000624 ± 0.00016 | 0.00208 ± 0.00051 | 0.00243 ± 0.00039
G38C C67U C70G | 1.59e-05 ± 1.8e-06 | – | – | – | – | – | –
A39G C50A G51U C71G | 1.15e-05 ± 3.2e-06 | – | – | – | – | – | –
A39C G51A | < 1e-05 | – | – | – | – | < 1e-05 | < 1e-05
G38C G66C C70U | 1.23e-05 ± 9.7e-07 | – | – | – | < 1e-05 | – | –
A39C A53G | 0.00638 ± 0.001 | 1890 ± 400 | 0.000151 ± 1.5e-05 | 0.000404 ± 6.3e-05 | 0.00157 ± 0.00027 | 0.00372 ± 0.00061 | 0.00541 ± 0.0007
G41A U54G | 0.000873 ± 0.00013 | 336 ± 90 | 9.13e-05 ± 1.9e-05 | – | 0.00057 ± 0.00021 | 0.000898 ± 0.00016 | 0.000661 ± 0.00021
A39C C67G | 0.000391 ± 0.00014 | – | 2.13e-05 ± 7.7e-06 | 3.74e-05 ± 7.5e-06 | 8.41e-05 ± 7.6e-06 | 0.000216 ± 1.7e-05 | –
G40U U69C | 8.37e-05 ± 1.1e-05 | – | – | – | 6.56e-05 ± 2e-05 | 9.26e-05 ± 1.9e-05 | 7.39e-05 ± 1.2e-05
A39U A48C | 0.000221 ± 2.1e-05 | 836 ± 370 | – | – | – | 0.000181 ± 1.8e-05 | 0.000196 ± 1.6e-05
G38C C71U | < 1e-05 | – | < 1e-05 | – | < 1e-05 | – | –
A39C G44A | 3.56e-05 ± 1.2e-05 | – | – | – | – | 5.47e-05 ± 1.1e-05 | 2.63e-05 ± 8.1e-06

Variant | kcat (glucosamine-6-phosphate [1]) [s⁻¹] | KM (glucosamine-6-phosphate [2]) [µM] | self-cleavage kobs at 40 uM GlcN6P (glucosamine-6-phosphate [3]) [s⁻¹] | self-cleavage kobs at 160 uM GlcN6P (glucosamine-6-phosphate [4]) [s⁻¹] | self-cleavage kobs at 640 uM GlcN6P (glucosamine-6-phosphate [5]) [s⁻¹] | self-cleavage kobs at 2500 uM GlcN6P (glucosamine-6-phosphate [6]) [s⁻¹] | self-cleavage kobs at 10000 uM GlcN6P (glucosamine-6-phosphate [7]) [s⁻¹]
G38U U49A C67A | 1.26e-05 ± 4.6e-06 | – | – | – | – | – | –
G40C U47G | 0.000514 ± 9.8e-05 | 1190 ± 440 | – | 7.96e-05 ± 1.8e-05 | 0.000157 ± 2.4e-05 | 0.00041 ± 5.3e-05 | 0.000412 ± 7.9e-05
G40U A53G | 0.00428 ± 0.0018 | – | 0.00024 ± 5.5e-05 | 0.000703 ± 0.0002 | 0.00118 ± 0.00028 | 0.00316 ± 0.00063 | 0.0062 ± 0.0017
G40U A53C | 0.00186 ± 0.00029 | 2780 ± 760 | 4.37e-05 ± 1.2e-05 | 0.00012 ± 3.1e-05 | 0.000309 ± 4.6e-05 | 0.00086 ± 0.0001 | 0.00149 ± 0.00016
G41A U46G C70U | 0.00726 ± 0.0013 | 620 ± 170 | 0.000436 ± 0.0001 | – | 0.00452 ± 0.0018 | – | 0.00749 ± 0.002
G41A U47A | 0.000635 ± 9.4e-05 | 282 ± 86 | 7.36e-05 ± 1.6e-05 | – | 0.000573 ± 0.00011 | 0.000608 ± 0.00018 | 0.00055 ± 0.0001
G41A U47C | 7.04e-05 ± 3.2e-07 | 1800 ± 30 | – | – | – | 4.08e-05 ± 1e-05 | 5.98e-05 ± 8.4e-06
A39G A53G | 0.0916 ± 0.024 | 2770 ± 830 | 0.0015 ± 0.00022 | 0.00433 ± 0.00068 | 0.0194 ± 0.0037 | 0.0404 ± 0.015 | 0.0725 ± 0.019
G38C A52G | < 1e-05 | 30.9 ± 14 | – | < 1e-05 | – | < 1e-05 | < 1e-05
G38C U49G C68A | 1.34e-05 ± 4.6e-06 | – | – | – | – | – | –
A39U G40A | 0.00855 ± 0.0042 | – | 0.000239 ± 2.5e-05 | 0.000664 ± 0.0001 | 0.00165 ± 0.00021 | 0.00537 ± 0.0012 | 0.00952 ± 0.0017
G40U U49G C71G | 0.000114 ± 2.6e-05 | – | – | – | – | 8.01e-05 ± 2.8e-05 | 9.53e-05 ± 1.8e-05
G38C A48G | < 1e-05 | – | – | – | < 1e-05 | – | –
A39C U65A | 0.000512 ± 3.7e-05 | 4220 ± 530 | – | – | 6.9e-05 ± 1.1e-05 | 0.000191 ± 2.8e-05 | 0.000359 ± 4.1e-05
A39C U47A | 0.00575 ± 0.0015 | 4090 ± 1400 | 8.72e-05 ± 1.3e-05 | 0.000179 ± 2.3e-05 | 0.000865 ± 0.0001 | 0.0021 ± 0.00033 | 0.00409 ± 0.00043
A39U G66C | 0.0109 ± 0.0036 | 6420 ± 2800 | 5.39e-05 ± 1.3e-05 | 0.00046 ± 0.00012 | 0.00112 ± 0.00026 | 0.00343 ± 0.00096 | 0.0065 ± 0.001
G38A C71U | < 1e-05 | – | – | – | – | – | –
